Data as given in ChEMBL document CHEMBL3525993, “Identification of multiple binding sites for substrate transport in bovine organic anion transporting polypeptide 1a2” (Drug Metab Dispos, 2013).

B1: Solute carrier organic anion transporter family member (Bos taurus) (protein)
chain: MGETEERIETHRIRCLSKLKMFLLAITCAFVSKTLSGSYMNSMITQIERQFNIPTSLVGFINGSFEIGNLLLIIFVSYFGTKLHRPIMIGVGCVVMGLGCFLQSLPHFLMGRYEYESTVSVSGNLSSNSFLCMENGTQIFKPTKDPSECVKEVKSLMWVYVLVGNIIRGIGETPIMPLGISYIEDFAKFENSPLYIGLIKTGGIIGPLIGLSLASFCANVYVDTESVNTDDLTITPSDTRWVGAWWIGFLICAGVNVLTAIPFFFLPKTLPKEGLEENAEIIKNDKEKQEDIKKKRDAITKDFLPFMKSLLCNPIYMLFILISVLQFNAFVSMVSFMPKYMEQHYGKSASEAIFLLGIYNFPPICIGYIVGGLFMKKFKITAVQAAHIGCWLSFTEYLLHFLCFFMICDSSSVAGLTTSYEGIHQNLRVKNFLADCNMDCNCPTKVWDPVCGNNGLSYTSACLAGCEISSGTGRKMVFQNCSCIQTPGNSSAVLGLCDKGKDCSMMLQYFLILSVFSSFIFSLSAIPGYMVLLRCVKPEEKSLGVGLHAFCTRVLAGIPAPIYFGALVDSTCLHWGTLKCGESGACRIYDSNSFRYIYLGIPAALRGSSYIPAFLILFILRKYRLPGENASSETMLVAKFTGKENEGKEMDQNAKVLNDDELKTKL

What was measured:
OATP1A2 [1] = target: T1, OATP1A2 (Homo sapiens, UniProt P46721); test: Cellular uptake in Xenopus oocytes cells assessed as OATP1A2 (unknown origin)-mediated drug uptake; type: ADME, cell-based, Oocyte; settings: Xenopus oocytes expressing OATP1A2
T1 sequence (P46721 whole entry): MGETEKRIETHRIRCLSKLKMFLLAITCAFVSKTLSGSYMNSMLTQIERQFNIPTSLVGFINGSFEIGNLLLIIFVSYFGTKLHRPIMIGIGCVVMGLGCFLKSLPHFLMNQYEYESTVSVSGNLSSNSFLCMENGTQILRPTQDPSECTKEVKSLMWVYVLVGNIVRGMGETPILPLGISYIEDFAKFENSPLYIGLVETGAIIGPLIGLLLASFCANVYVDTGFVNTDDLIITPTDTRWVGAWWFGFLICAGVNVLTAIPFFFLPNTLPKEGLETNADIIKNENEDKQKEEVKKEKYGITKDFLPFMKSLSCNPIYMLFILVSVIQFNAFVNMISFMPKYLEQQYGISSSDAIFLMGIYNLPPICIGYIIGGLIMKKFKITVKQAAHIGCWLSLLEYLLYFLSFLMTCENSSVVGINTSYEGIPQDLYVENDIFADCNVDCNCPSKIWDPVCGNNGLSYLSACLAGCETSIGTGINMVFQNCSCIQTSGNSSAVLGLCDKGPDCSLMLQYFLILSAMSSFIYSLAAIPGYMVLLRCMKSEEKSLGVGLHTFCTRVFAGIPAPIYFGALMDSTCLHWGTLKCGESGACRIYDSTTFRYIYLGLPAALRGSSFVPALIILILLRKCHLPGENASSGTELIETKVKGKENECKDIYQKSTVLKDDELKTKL

OATP1A2 [2] = target: T1, OATP1A2; test: (§1) Cellular uptake in HEK293 cells assessed as human OATP1A2-mediated drug uptake at 0.05 uM after 1 min by Eadie-Hofstee plot analysis; type: ADME, cell-based; settings: HEK293 cells expressing human OATP1A2
[3] = target: T2, Solute carrier organic anion transporter family member 1A2 (Homo sapiens, UniProt P46721); test: as §1; type: ADME, cell-based; settings: hek293, 1 min, 0.05 µM
T2 sequence (P46721 whole entry): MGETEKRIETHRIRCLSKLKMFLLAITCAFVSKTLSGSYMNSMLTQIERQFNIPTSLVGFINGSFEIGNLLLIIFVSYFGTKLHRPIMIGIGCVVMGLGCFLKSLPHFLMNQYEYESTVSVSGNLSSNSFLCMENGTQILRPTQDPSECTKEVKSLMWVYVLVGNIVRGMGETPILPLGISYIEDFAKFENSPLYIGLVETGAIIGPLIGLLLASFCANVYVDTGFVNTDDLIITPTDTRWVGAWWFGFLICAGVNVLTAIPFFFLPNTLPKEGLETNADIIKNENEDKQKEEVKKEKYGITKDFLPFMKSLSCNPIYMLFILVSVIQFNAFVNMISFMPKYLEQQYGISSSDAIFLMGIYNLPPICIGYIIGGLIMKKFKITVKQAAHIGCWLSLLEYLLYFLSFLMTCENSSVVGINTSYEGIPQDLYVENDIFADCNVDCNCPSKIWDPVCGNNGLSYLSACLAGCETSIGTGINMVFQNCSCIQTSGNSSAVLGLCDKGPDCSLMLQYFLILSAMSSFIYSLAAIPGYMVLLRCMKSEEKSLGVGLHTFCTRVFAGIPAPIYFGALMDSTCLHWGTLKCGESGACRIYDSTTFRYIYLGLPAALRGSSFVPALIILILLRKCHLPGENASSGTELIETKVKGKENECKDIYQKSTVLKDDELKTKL

[4] = substrate: C[C@]12CC[C@@H]3c4ccc(OS(=O)(=O)O)cc4CC[C@H]3[C@@H]1CCC2=O; test: Cellular uptake in HEK293 cells assessed as bovine low affinity site of OATP1A2-mediated drug uptake at 0.01 to 50 uM after 1 min by Eadie-Hofstee plot analysis; type: ADME, cell-based, Bos taurus
[5] = substrate: C[C@]12CC[C@@H]3c4ccc(OS(=O)(=O)O)cc4CC[C@H]3[C@@H]1CCC2=O; test: Cellular uptake in HEK293 cells assessed as bovine high affinity site of OATP1A2-mediated drug uptake at 0.01 to 50 uM after 1 min by Eadie-Hofstee plot analysis; type: ADME, cell-based, Bos taurus

Molecule | Km (OATP1A2 [1]) | Km at 1 min (OATP1A2 [2]) | Vmax [3] | Km [4] | Vmax [4] | Km [5] | Vmax [5]
C[C@]12CC[C@@H]3c4ccc(OS(=O)(=O)O)cc4CC[C@H]3[C@@H]1CCC2=O [ESTRONE SULFURIC ACID] | 9.6 µM | 16.1 µM | 39.4 pmol/mg/min |  |  |  | 
B1 |  |  |  | 46.6 µM | 0.000375 µmol/min/mg | 0.25 µM | 2.45e-05 µmol/min/mg
